Experimental data: the supplement of paper PMC10567573

B1: C2CD2L (parent)
chain: EPAGSLRELGVWRSLLRLRATRAG

Variants of: B1
Assay: protein stability index of a GFP-peptide fusion (GPS, HEK-293T) (PSI 1-6); higher = more stable
Details: c terminus: a fixed tail appended
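Note: lentivirally expressed fusions sorted by FACS into six bins by GFP to DsRed ratio, PSI derived from sequencing read proportions per bin multiplied by bin number.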

Variant | protein stability index
EPAGSLHELGVWRSLLRLRATRAG [R7H] | 2.67
EPMGSLRELGVWRSLLRLRATRAG [A3M] | 2.19
EPATSLRELGVWRSLLRLRATRAG [G4T] | 2.4
EYAGSLRELGVWRSLLRLRATRAG [P2Y] | 2.04
EPAGYLRELGVWRSLLRLRATRAG [S5Y] | 2.73
EPAGSLRELGVWRSLLRLKATRAG [R19K] | 2.99
EPAGRLRELGVWRSLLRLRATRAG [S5R] | 2.03
LPAGSLRELGVWRSLLRLRATRAG [E1L] | 2.31
EPAGSLRELGVWRSLLRLRATRAQ [G24Q] | 2.77
EPAGSLREGGVWRSLLRLRATRAG [L9G] | 3.69
EPAGSLRELGVWRSLLRCRATRAG [L18C] | 2.67
EPAGSLRELGVWRRLLRLRATRAG [S14R] | 1.91
EPAGSLREYGVWRSLLRLRATRAG [L9Y] | 4.48
EPAISLRELGVWRSLLRLRATRAG [G4I] | 2.07
EPAGSLRELGVWRSLLRWRATRAG [L18W] | 1.53
EPAGSLRELGAWRSLLRLRATRAG [V11A] | 2.61
EPAGSLRELGVWRSLLRLRHTRAG [A20H] | 2.67
EPAGSLRELGVWRSLLILRATRAG [R17I] | 2.46
EPAGSLRELGVWRSDLRLRATRAG [L15D] | 3.67
EPAGWLRELGVWRSLLRLRATRAG [S5W] | 1.82
EPAGSLRELGVWRSLLRLRATRAN [G24N] | 1.91
EPWGSLRELGVWRSLLRLRATRAG [A3W] | 1.97
EPTGSLRELGVWRSLLRLRATRAG [A3T] | 2.93
EPAGSLRECGVWRSLLRLRATRAG [L9C] | 3.04

Variant | protein stability index
EPAGSLRELGVERSLLRLRATRAG [W12E] | 3.84
EPAGSLRESGVWRSLLRLRATRAG [L9S] | 3.16
EPAGSLRSLGVWRSLLRLRATRAG [E8S] | 2.49
EPAGSLREFGVWRSLLRLRATRAG [L9F] | 3.97
IPAGSLRELGVWRSLLRLRATRAG [E1I] | 1.91
EPAGSLRELGVWRSLLRLRATPAG [R22P] | 2.14
EPAGSLRELGVWRSGLRLRATRAG [L15G] | 3.51
EPAGSLRELGVWRSLFRLRATRAG [L16F] | 2.26
EPAGSLRELGVWRKLLRLRATRAG [S14K] | 1.96
EPAGSLRELGVWRELLRLRATRAG [S14E] | 2.47
EPAGSLRELGTWRSLLRLRATRAG [V11T] | 2.95
EPAGSLRELGVWRSLGRLRATRAG [L16G] | 3.32
EPAGSLRELGVWFSLLRLRATRAG [R13F] | 1.81
FPAGSLRELGVWRSLLRLRATRAG [E1F] | 2.41
EPAGSKRELGVWRSLLRLRATRAG [L6K] | 2.36
EPAGSLRELGVWRSLLRLRMTRAG [A20M] | 2.48
EPAGSLRELGVWRSLLRLIATRAG [R19I] | 2.24
EPAGSLRELGVWRSLLGLRATRAG [R17G] | 3.26
EPAGFLRELGVWRSLLRLRATRAG [S5F] | 1.21
EAAGSLRELGVWRSLLRLRATRAG [P2A] | 2.08
EPAGSLRELGVWRSLLRLRAMRAG [T21M] | 2.3
EPAGSLRELGVWRSLLRLRATRAL [G24L] | 2.87
EPAGSLRELHVWRSLLRLRATRAG [G10H] | 3.78
EPAGSLRELGVWRSLLRLRATRCG [A23C] | 1.7

Variant | protein stability index
EPAGSLRELDVWRSLLRLRATRAG [G10D] | 2.99
EPAGSLRELGVWRSLLRLRTTRAG [A20T] | 1.85
EPAGSLRRLGVWRSLLRLRATRAG [E8R] | 2.06
EPAGSLRELGVWRSLLRLRAFRAG [T21F] | 1.96
EPAGSLRELGVWRSLYRLRATRAG [L16Y] | 2.3
EPAGSLRELGVWRSLLRLRATFAG [R22F] | 2.1
EPAGSLRELGVWRSLLRLRATRAV [G24V] | 2.25
RPAGSLRELGVWRSLLRLRATRAG [E1R] | 2.25
EPAGDLRELGVWRSLLRLRATRAG [S5D] | 2.56
EPAGSLCELGVWRSLLRLRATRAG [R7C] | 1.74
EPACSLRELGVWRSLLRLRATRAG [G4C] | 2.04
EPAGSLRELSVWRSLLRLRATRAG [G10S] | 3.18
EPAGSLRELGVWRSMLRLRATRAG [L15M] | 2.48
EPAGSLRELGVSRSLLRLRATRAG [W12S] | 4.37
EPAGSLRELGVWRSLLRLRATRAY [G24Y] | 1.99
EPAGSLRELGVWRSLTRLRATRAG [L16T] | 2.74
EPAGSLRELGVWRSLLRLRATRLG [A23L] | 2.2
EPAGSLRELGVWRDLLRLRATRAG [S14D] | 1.56
EPAGSLRELGVWRSLLRIRATRAG [L18I] | 2.65
EPAGSLRELGVWRSLLRRRATRAG [L18R] | 3.54
EPAGSLRELGVWRSLLMLRATRAG [R17M] | 1.2
EPEGSLRELGVWRSLLRLRATRAG [A3E] | 2.65
EPAGSLRELGVDRSLLRLRATRAG [W12D] | 1.9
EPAGSLRELGVWRSLLRLRSTRAG [A20S] | 1.94

Variant | protein stability index
EPAGSLRELGVWRSLLRLQATRAG [R19Q] | 1.98
EPAMSLRELGVWRSLLRLRATRAG [G4M] | 2.39
EPAGSLRELNVWRSLLRLRATRAG [G10N] | 4.3
EPAGSLRELGYWRSLLRLRATRAG [V11Y] | 2.21
EPAGSLRELGVWTSLLRLRATRAG [R13T] | 2.05
EPAGSLRELGVWRSLLRLRATRAA [G24A] | 2.89
EPAGSLRELGVWRSLLRLHATRAG [R19H] | 1.85
EPAGSLRELGVWRSLLTLRATRAG [R17T] | 2.3
EPANSLRELGVWRSLLRLRATRAG [G4N] | 1.98
EPAGSLRELGVWRVLLRLRATRAG [S14V] | 1.02
EPAGSLRELGVWRSLLHLRATRAG [R17H] | 2.65
EPAGSLRELGVWRPLLRLRATRAG [S14P] | 2.98
EPAGSLRELGNWRSLLRLRATRAG [V11N] | 3.27
EPAGSLRELGVWRSLLRLRAKRAG [T21K] | 2.97
EPAGSLRELGVWRSLLRLDATRAG [R19D] | 2.73
EPVGSLRELGVWRSLLRLRATRAG [A3V] | 2.77
ETAGSLRELGVWRSLLRLRATRAG [P2T] | 1.93
EPAGSLRELGVWRQLLRLRATRAG [S14Q] | 2.12
EPAGSLRELGHWRSLLRLRATRAG [V11H] | 3.11
EPAGSLRELGVWRMLLRLRATRAG [S14M] | 2.41
EPAGSLRELGVWPSLLRLRATRAG [R13P] | 2.55
EPAGSLRELGVWRSLLRLSATRAG [R19S] | 3.27
